Measured values: patent publication US20230391879A1 (INTERVET, published 2023)
Numbering of substitutions follows the chain as printed.

Assays:
Canine IL-31RA ECD-10His [1] = molecular target: T1, Canine IL-31RA ECD-10His (canine); assay: ELISA (FIG. 6A)
T1 construct: made in HEK-293 or CHO cells and coated on the ELISA plates; also called canine IL-31 receptor alpha extracellular domain HIS-tagged protein; cIL-31RA
T1 chain: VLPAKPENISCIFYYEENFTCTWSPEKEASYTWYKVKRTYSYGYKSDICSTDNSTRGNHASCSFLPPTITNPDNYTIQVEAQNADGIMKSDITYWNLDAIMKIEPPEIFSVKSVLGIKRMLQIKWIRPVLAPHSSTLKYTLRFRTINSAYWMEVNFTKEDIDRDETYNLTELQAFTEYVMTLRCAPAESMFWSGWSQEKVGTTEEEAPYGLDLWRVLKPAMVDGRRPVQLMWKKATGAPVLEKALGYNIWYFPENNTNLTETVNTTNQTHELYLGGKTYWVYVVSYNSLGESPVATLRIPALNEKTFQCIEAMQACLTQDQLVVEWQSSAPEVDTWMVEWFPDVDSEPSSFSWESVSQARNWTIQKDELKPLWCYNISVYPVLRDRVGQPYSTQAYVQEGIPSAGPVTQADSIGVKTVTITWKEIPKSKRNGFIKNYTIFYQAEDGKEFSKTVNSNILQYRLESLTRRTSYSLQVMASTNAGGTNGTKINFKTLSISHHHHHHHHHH

Canine IL-31RA ECD-10His [2] = molecular target: T1, Canine IL-31RA ECD-10His; assay: ELISA, IL-31RA coated
Canine IL-31RA ECD-10His [3] = molecular target: T1, Canine IL-31RA ECD-10His; assay: ELISA (FIG. 6C)
Canine IL-31RA ECD-10His [4] = molecular target: T1, Canine IL-31RA ECD-10His; assay: ELISA (FIG. 6B)

B1: caninized 10A12VH1VL5 (antibody, V domains shown)
VH: EVQLVESGGDLVKPGGSLRLSCVASGFTFSNYYMAWVRQAPGKGLQWVASISTGGGNTYYRDSVKGRFTISRDNAKNTLYLQMNSLRAEDTAMYYCAKHGTLYFDYWGQGTLVTVSS
VL: QPVLTQPPSLSASLGTTARLTCERSSGDIGDSYVSWYQQKPGSPPRDLLYVDDQRPSGVSKSFSGSKDTSANAGLLLISGLQPEDEADYYCQSYDSNIDGPVFGGGTHLTVLG
notes: Caninized antibody, canine IgG-Bm heavy chain and canine lambda light chain; also called c10A12VH1-cIgGBm + c10A12VL5-cCL
- binding result (Canine IL-31RA ECD-10His [1]): binds

B2: caninized 10A12VH2VL6 (antibody, V domains shown)
VH: B1 VH with V23A, K98R
VL: B1 VL with L48V, L49I, G58E, Y90F
notes: Caninized antibody, canine IgG-Bm heavy chain and canine lambda light chain; also called c10A12; c10A12VH2-cIgGBm + c10A12VL6-cCL
- binding result (Canine IL-31RA ECD-10His [1]): binds

B3: caninized 10A12VH2VL5 (antibody, V domains shown)
VH: B1 VH with V23A, K98R
VL: B1 VL
notes: Caninized antibody, canine IgG-Bm heavy chain and canine lambda light chain; also called c10A12VH2-cIgGBm + c10A12VL5-cCL
- binding result (Canine IL-31RA ECD-10His [1]): binds

B4: caninized 10A12VH1VL6 (antibody, V domains shown)
VH: B1 VH
VL: B1 VL with L48V, L49I, G58E, Y90F
notes: Caninized antibody, canine IgG-Bm heavy chain and canine lambda light chain; also called c10A12VH1-cIgGBm + c10A12VL6-cCL
- binding result (Canine IL-31RA ECD-10His [1]): binds

B5: 44E2 (antibody, V domains shown)
VH: QVQLKESGPGLVQPSQTLSLTCTVSGFSLTSNGVSWVRQPPGKGLEWIAAISSGGSTYYNSVLKSRLSISRDTSKSQVFLKMNSLQTEDTAIYFCTRRLSGYNYVPFAYWGQGTLVTVSS
VL: DIQMTQSPSLLSASVGDRVTLNCKASQNIYKHLAWCQQKLGEPPNLLISNANSLQTGIPSRFSGSGSGTDFTLTISSLQPEDVATYFCQQYYSGDTFGAGTKLELK
notes: Rat monoclonal antibody from a hybridoma; also called rat mAb 44E2
- binding result (Canine IL-31RA ECD-10His [2]): binds

B6: 28F12 (antibody, V domains shown)
VH: EVQLVESDGGLAQPGRSLKLSCAASGFTFSDYYMAWVRQAPTKGLEWVATISYDGSSTYYRDSVRGRFTISRDNAKSTLYLQMDSLRSEDTATYYCARGPLTDWAPNWFAYWGQGTLVTVSS
VL: DIQMTQSPASLSASLGETVTIQCQTSEDIYSGLAWYQQKPGKSPQFLIYGASRLEDGVPSRFSGSGSGTQYSLKISSMQTEDEGVYFCQQGLKYPNTFGAGTKLELK
notes: Rat monoclonal antibody from a hybridoma; also called rat mAb 28F12
- binding result (Canine IL-31RA ECD-10His [2]): binds

B7: caninized 44E2VH2VK1 (antibody, V domains shown)
VH: EVQLVESGGDLVKPEGSLRLSCVVSGFSLTSNGVSWVRQAPGKGLQWIAAISSGGSTYYNSVLKSRLTISRDNAKNTLYLQMNSLRTEDTAVYYCARRLSGYNYVPFAYWGQGTLVTVSS
VL: EIVMTQSPASLSLSQEEKVTITCKASQNIYKHLAWYQQKPGQAPKLLIYNANSLQTGVPSRFSGSGSGTDFSFTISSLEPEDVAVYYCQQYYSGDTFGAGTKVELKR
notes: Caninized antibody, canine IgG-Bm heavy chain and canine kappa light chain; also called c44E2; c44E2VH2-cIgGBm + c44E2VK1-cCK
- binding result (Canine IL-31RA ECD-10His [3]): binds

B8: caninized 44E2VH5VK1 (antibody, V domains shown)
VH: ELTLQESGPGLVKPSQTLSLTCTVSGFSLTSNGVSWIRQRPGRGLEWMGAISSGGSTYYNSVLKSRISITADTAKNQFSLQLSSMTTEDTAVYYCARRLSGYNYVPFAYWGQGTLVTVSS
VL: B7 VL
notes: Caninized antibody, canine IgG-Bm heavy chain and canine kappa light chain; also called c44E2VH5-cIgGBm + c44E2VK1-cCK
- binding result (Canine IL-31RA ECD-10His [3]): binds

B9: caninized 44E2VH5VK2 (antibody, V domains shown)
VH: B8 VH
VL: B7 VL with V58I, Y87F
notes: Caninized antibody, canine IgG-Bm heavy chain and canine kappa light chain; also called c44E2; c44E2VH5-cIgGBm + c44E2VK2-cCK
- binding result (Canine IL-31RA ECD-10His [3]): binds

B10: caninized 44E2VH2VK2 (antibody, V domains shown)
VH: B7 VH
VL: B7 VL with V58I, Y87F
notes: Caninized antibody, canine IgG-Bm heavy chain and canine kappa light chain; also called c44E2; c44E2VH2-cIgGBm + c44E2VK2-cCK
- binding result (Canine IL-31RA ECD-10His [3]): binds

B11: caninized 44E2VH4VK1 (antibody, V domains shown)
VH: B8 VH with T23V, F27G, L29V
VL: B7 VL
notes: Caninized antibody, canine IgG-Bm heavy chain and canine kappa light chain; also called c44E2VH4-cIgGBm + c44E2VK1-cCK
- binding result (Canine IL-31RA ECD-10His [3]): binds

B12: 47F3 (antibody, V domains shown)
VH: EVQLVESGGGLVQPGRSMKLSCVASGFTFSNYYMAWVRQAPTKGLEWVASISTGGGNTYYRDSVKGRFTISRDNAKSTLYLQMDSLRSEDTATYYCARHGTLYFDYWGQGVMVTVS
VL: QFTLTQPKSVSGSLRSTITIPCERSSGDIGNTYVSWYQQHLGRPPINVIYADDQRPSEVSDRFSGSIDSSSNSASLTITNLQMDDEADYFCQSYDSNIDGPVFGGGTKLTVL
notes: Rat monoclonal antibody from a hybridoma; also called rat mAb 47F3
- binding result (Canine IL-31RA ECD-10His [2]): binds

B13: 51G4 (antibody, V domains shown)
VH: EVQLVESGGGLVQPGRSMKLSCAALGFTFSNYYMAWVRQAPTKGLEWVASISTGGGNTYYRDSVKGRFTISRDNAKNTLYLQMDSLRSEDTATYYCARHGTIAAMDYWGQGVMVTVSS
VL: B12 VL with S25N, S26N, N31D, T32S, N47I
notes: Rat monoclonal antibody from a hybridoma; also called rat mAb 51G4
- binding result (Canine IL-31RA ECD-10His [2]): binds

B14: 49D3 (antibody, V domains shown)
VH: EVQLVESGGGLVQPGRSMKLSCAASGFTFSNYYMAWVRQAPTKGLEWVASISTGGGNTYYRDSVKGRFTISRDNAKSTLYLQMDSLRSEDTATYYCARHGTLYFDYWGQGVMVTVSS
VL: B12 VL with N31D, T32S
notes: Rat monoclonal antibody from a hybridoma; also called rat mAb 49D3
- binding result (Canine IL-31RA ECD-10His [2]): binds

B15: 10A12 (antibody, V domains shown)
VH: B14 VH with Q13K, S77R, A97G
VL: B12 VL with N31D, T32S, A51V, N80D
notes: Rat monoclonal antibody from a hybridoma; also called rat mAb 10A12
- binding result (Canine IL-31RA ECD-10His [2]): binds

B16: 27A10 (antibody, V domains shown)
VH: B14 VH with A23T, S88A, G100T, T101M, L102G
VL: B12 VL with N31D, T32N, S96G, N97K, D99E, G100I
notes: Rat monoclonal antibody from a hybridoma; also called rat mAb 27A10
- binding result (Canine IL-31RA ECD-10His [2]): binds

B17: 53B3 (antibody, V domains shown)
VH: B13 VH with L25F, S30N, Y59F, A75V, N77S, T78I, Y80S
VL: B12 VL with S25T, N31D, T32N
notes: Rat monoclonal antibody from a hybridoma; also called rat mAb 53B3
- binding result (Canine IL-31RA ECD-10His [2]): binds

B18: 4G7 (antibody, V domains shown)
VH: EVQLQQYGAELGKPGTSVKLSCKVSGYNIRSTFMHWVNQRPGKGLEWIGRIDPVNGNTIYSEKFKSKATLTADTSSNTAYMQLSQLKSDDTAIYFCAMFNYAGHSGDYWGQGVMVTVSS
VL: DIQMTQSPSSMSVSLGDTVTITCRASQDVGIYVNWFQQKPGKSPRRMIYRATNLADGVPSRFSGSRSGSDYSLTISSLESEDVADYHCLQYDEYPYTFGAGTKLELK
notes: Rat monoclonal antibody from a hybridoma; also called rat mAb 4G7
- binding result (Canine IL-31RA ECD-10His [2]): binds

B19: caninized 28F12VH2VK3 (antibody, V domains shown)
VH: EVQLVESGGDLVKPGGSLRLSCAASGFTFSDYYMAWVRQAPGKGLQWVATISYDGSSTYYRDSVRGRFTISRDNAKNTLYLQMNSLRAEDTAMYYCARGPLTDWAPNWFAYWGQGTLVTVSS
VL: DIVMTQSPASLSLSQEEKVTITCQTSEDIYSGLAWYQQKPGQAPKLLIYGASRLEDGVPSRFSGSGSGTDFSFTISSLEPEDVAVYFCQQGLKYPNTFGAGTKVELKR
notes: Caninized antibody, canine IgG-Bm heavy chain and canine kappa light chain; also called c28F12; c28F12VH2-cIgGBm + c28F12VK3-cCK
- binding result (Canine IL-31RA ECD-10His [4]): binds

B20: caninized 28F12VH1VK4 (antibody, V domains shown)
VH: B19 VH with A23V, R98K
VL: DIVMTQTPLSLSVSPGETASISCQTSEDIYSGLAWFRQKPGQSPQLLIYGASRLEDGVPDRFSGSGSGTDFTLRISTVEADDTGVYFCQQGLKYPNTFGAGTKVELKR
notes: Caninized antibody, canine IgG-Bm heavy chain and canine kappa light chain; also called c28F12VH1-cIgGBm + c28F12VK4-cCK
- binding result (Canine IL-31RA ECD-10His [4]): binds

B21: caninized 28F12VH1VK3 (antibody, V domains shown)
VH: B19 VH with A23V, R98K
VL: B19 VL
notes: Caninized antibody, canine IgG-Bm heavy chain and canine kappa light chain; also called c28F12VH1-cIgGBm + c28F12VK3-cCK
- binding result (Canine IL-31RA ECD-10His [4]): binds

B22: caninized 28F12VH2VK2 (antibody, V domains shown)
VH: B19 VH
VL: B19 VL with D1E, F87Y
notes: Caninized antibody, canine IgG-Bm heavy chain and canine kappa light chain; also called caninized 28F12VH2K2; c28F12
- binding result (Canine IL-31RA ECD-10His [4]): binds

B23: caninized 28F12VH2VK4 (antibody, V domains shown)
VH: B19 VH
VL: B20 VL
notes: Caninized antibody, canine IgG-Bm heavy chain and canine kappa light chain; also called c28F12VH2-cIgGBm + c28F12VK4-cCK
- binding result (Canine IL-31RA ECD-10His [4]): binds

B24: 48B1 (antibody, V domains shown)
VH: EVQLVESGGGLVQPGRTLKLFCVASGFTFNNYWMTWIRQAPGKGLEWVASITNTGGSTYYPDSVKGRFTISRDNAKSTLYLQMNSLRSEDTATYYCTRGPDYGGHLNWFVYWGQGTLVTVSS
VL: DIVMTQSPTSMSISVGDRVTMNCKASQNVGSNVDWYQQKTGQSPKLLIYKASNRYTGVPDRFTGSGSGTDFTFTISNMQAEDLAVYYCMQSNSYPPTFGGGTKLELK
notes: Rat monoclonal antibody from a hybridoma; also called rat mAb 48B1
- binding result (Canine IL-31RA ECD-10His [2]): binds

B25: 20B8 (antibody, V domains shown)
VH: EVQLVESGGGLVQPGRSLKLSCVASGFTFNNYWMTWIRQAPGKGLEWVASITNTGGSTYYPDSVKGRFTISRDNAKSTLYLQMNSLRSEDTATYYCTRGPTTVVGGWFAYWGQGTLVTVSS
VL: B24 VL with K50R, A51P
notes: Rat monoclonal antibody from a hybridoma; also called rat mAb 20B8
- binding result (Canine IL-31RA ECD-10His [2]): binds

B26: 7D7 (antibody, V domains shown)
VH: B24 VH with T17S, F21S, Y59F, V110A
VL: B24 VL with V15A, F62C
notes: Rat monoclonal antibody from a hybridoma; also called rat mAb 7D7
- binding result (Canine IL-31RA ECD-10His [2]): binds

B27: 22B4 (antibody, V domains shown)
VH: B24 VH with T17S, F21S, N31K, T58S, P61S, D90E, V110A
VL: B24 VL with Q38E, L47V
notes: Rat monoclonal antibody from a hybridoma; also called rat mAb 22B4
- binding result (Canine IL-31RA ECD-10His [2]): binds
